Values quoted from earlier work as cited in paper PMC10359924.
Where two headings read alike, the source gives them in different places. Each block holds one substance with its values, some of them ahead of it.

What was measured:
γc (Homo sapiens) = γc (Homo sapiens) (UniProt P31785)
IL-13Rα1 (Homo sapiens) [1] = molecular target: IL-13Rα1 (Homo sapiens) (UniProt P78552)
IL-13Rα1 (Homo sapiens) [2] = molecular target: IL-13Rα1 (Homo sapiens) (UniProt P78552); remark: listed apart in the source
IL-4Rα (Homo sapiens) [3] = molecular target: IL-4Rα (Homo sapiens) (UniProt P24394)
IL-4Rα (Homo sapiens) [4] = molecular target: IL-4Rα (Homo sapiens) (UniProt P24394); remark: listed apart in the source

Sequence of IL-4/IL-4Rα complex (P05112 25-153): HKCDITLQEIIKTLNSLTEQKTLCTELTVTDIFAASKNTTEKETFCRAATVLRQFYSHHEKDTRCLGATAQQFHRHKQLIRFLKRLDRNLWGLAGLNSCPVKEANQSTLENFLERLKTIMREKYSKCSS
Sequence of IL-4/IL-4Rα complex (P24394 26-232, further chain): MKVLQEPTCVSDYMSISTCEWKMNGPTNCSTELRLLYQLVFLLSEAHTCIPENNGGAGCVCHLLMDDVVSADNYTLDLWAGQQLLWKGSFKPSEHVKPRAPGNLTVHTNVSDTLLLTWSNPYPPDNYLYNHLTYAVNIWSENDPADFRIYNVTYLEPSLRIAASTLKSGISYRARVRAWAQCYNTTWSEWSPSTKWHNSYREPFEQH
Sequence of IL-13Rα1 (Homo sapiens) (P78552 22-343): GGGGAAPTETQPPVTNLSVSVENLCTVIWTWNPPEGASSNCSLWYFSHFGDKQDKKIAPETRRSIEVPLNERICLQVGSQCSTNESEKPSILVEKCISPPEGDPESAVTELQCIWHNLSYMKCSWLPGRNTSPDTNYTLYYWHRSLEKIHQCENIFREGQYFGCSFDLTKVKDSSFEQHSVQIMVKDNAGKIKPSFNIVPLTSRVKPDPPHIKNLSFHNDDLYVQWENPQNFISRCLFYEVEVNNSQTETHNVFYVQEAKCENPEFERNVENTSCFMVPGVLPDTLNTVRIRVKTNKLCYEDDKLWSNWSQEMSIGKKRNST
Sequence of IL-4Rα (Homo sapiens) (P24394 26-232): as the sequence (P24394 26-232, further chain) above
Sequence of γc (Homo sapiens) (P31785 23-262): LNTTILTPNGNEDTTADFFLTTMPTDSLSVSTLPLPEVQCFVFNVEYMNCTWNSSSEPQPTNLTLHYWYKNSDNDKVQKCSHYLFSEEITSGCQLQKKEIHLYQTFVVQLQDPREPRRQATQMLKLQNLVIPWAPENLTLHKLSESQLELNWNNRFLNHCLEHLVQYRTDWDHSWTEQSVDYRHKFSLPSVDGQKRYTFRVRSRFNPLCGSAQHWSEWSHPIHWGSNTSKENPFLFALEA
Sequence of IL-4 (P05112 25-153): as the sequence (P05112 25-153) above
Sequence of IL-13 (P35225 25-146): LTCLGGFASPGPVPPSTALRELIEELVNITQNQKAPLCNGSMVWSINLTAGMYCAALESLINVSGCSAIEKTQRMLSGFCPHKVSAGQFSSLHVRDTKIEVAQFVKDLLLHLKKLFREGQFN
Sequence of IL-13/IL-13Rα1 complex (P35225 25-146): as above
Sequence of IL-13/IL-13Rα1 complex (P78552 22-343, further chain): as the sequence (P78552 22-343) above

- Kd (γc (Homo sapiens)): 559 nM
- Kd (IL-13Rα1 (Homo sapiens) [1]): 487 nM
Substance: IL-4/IL-4Rα complex (from UniProt P05112)

- Kd (IL-13Rα1 (Homo sapiens) [2]): 30 nM
Substance: IL-13 (from UniProt P35225)

- Kd (IL-4Rα (Homo sapiens) [3]): 1 nM
Substance: IL-4 (from UniProt P05112)

- Kd (IL-4Rα (Homo sapiens) [4]): 20 nM
Substance: IL-13/IL-13Rα1 complex (from UniProt P35225)
